Results taken from patent US12702716B2, “Monocyte-specific aptamers and uses thereof for delivering therapeutic agents to heart” (Academia Sinica, priority 2020, dated 2026).

Experiments:
[1] = tested on: human monocyte cell line THP-1; test: Flow cytometry binding of Cy5-labeled aptamers to THP-1; settings: 200 nM Cy5-aptamer, 4° C., 30 minutes; FIG. 3
Experimental: (§1) To confirm that J10 binding, but not S2 binding, was selective to human monocytes in vitro, Cy5-labeled J10 and S2 were also incubated with the human monocyte cell lines, THP-1 and U937, and human umbilical cord endothelial cells (HUVEC), which were used as a negative control. In brief, 5×10^5 of each selected cell line was pre-mixed in a bloc king buffer (20% FBS and 10% salmon sperm DNA in PBS) at 4° C. for 30 minutes. After that, the cells were reacted with 200 nM Cy5-J10 or Cy5-S2 in the blocking buffer at 4° C. for 30 minutes. Finally, the sample was subjected to flow cytometry using standard protocols known in the art.

[2] = tested on: human umbilical cord endothelial cells (HUVEC); test: Flow cytometry binding of Cy5-labeled aptamers to HUVEC (negative control); settings: 200 nM Cy5-aptamer, 4° C., 30 minutes; FIG. 3
Experimental: as §1

[3] = tested on: human monocyte cell line U937; test: Flow cytometry binding of Cy5-labeled aptamers to U937; settings: 200 nM Cy5-aptamer, 4° C., 30 minutes; FIG. 3
Experimental: as §1

[4] = tested on: mouse endothelial cell line SVEC; test: Flow cytometry binding of Cy5-labeled aptamers to SVEC (negative selection); settings: 200 nM Cy5-aptamer, 4° C., 30 minutes; FIG. 2A
Experimental: (§2) Cy5-labeled J10 and S2 were also incubated with the mouse endothelial cell line SVEC which was used as a negative selection. In brief, 5×10^5 of each selected cell line was pre-mixed in a bloc king buffer (20% FBS and 10% salmon sperm DNA in PBS) at 4° C. for 30 minutes. After that, the cells were reacted with 200 nM Cy5-J10 or Cy5-S2 in the blocking buffer at 4° C. for 30 minutes. Finally, the sample was subjected to flow cytometry using standard protocols known in the art.

[5] = tested on: RAW264.7 monocyte cell line; test: Flow cytometry binding of Cy5-labeled aptamers to RAW264.7; parameters: species or system mouse; settings: 200 nM Cy5-aptamer, 4° C., 30 minutes; FIG. 2A
Experimental: as §2

[6] = tested on: J774A.1 monocyte cell line; test: Flow cytometry binding of Cy5-labeled aptamers to J774A.1; parameters: species or system mouse; settings: 200 nM Cy5-aptamer, 4° C., 30 minutes; FIG. 2A
Experimental: as §2

[7] = tested on: infarct area of the injured hearts; settings: mouse, iv
Experimental: as §2
To generate the murine I/R models, 8-10 weeks old mice were anesthetised with 80 mg/kg Zoletil 50 and 3.5 mg/kg Rompun and given O2 via a tracheal tube on the 37° C. heating pad. The heart was accessed via left thoracotomy between the third and fourth ribs. The left anterior descending coronary artery was temporarily ligated with sutures 7-0 polypropylene through polyethylene-10 tubing for 45 minutes. Subsequently, polyethylene-10 tubing was removed to induce myocardial ischemia/reperfusion injury. The success of the surgery was evaluated by echocardiography on the following day.

[8] = tested on: circulating myeloid cells (CD45+ CD11b+ cells); test: Ex vivo binding to peripheral blood cells by flow cytometry; parameters: species or system mouse; settings: 2 μM Cy5-Apt, 30 minutes at 4° C., peripheral blood of healthy mice; FIG. 2D
Experimental: To test for ex vivo binding specificity and affinity, 100 μL peripheral blood from healthy mice was withdrawn via the submandibular vein, collected in EDTA-containing anticoagulant tubes (BD Vacutainer), and incubated with 2 mL ACK lysing buffer for 10 minutes to lyse the red blood cells. After that, 2% FBS in PBS was added to stop the reaction. Following centrifugation (300 g for 3 minutes at 4° C.) the supernatants were removed. One million cells were blocked by CD16/CD32 Fc blocking antibody (1:100; Invitrogen) after incubation for 20 minutes. Then the cells were stained for CD45 (PE-Cy7; 1:100; Biolegend), CD11b (PE; 1:200; Biolegend) and 2 μM Cy5-Apt for 30 minutes at 4° C. Finally, the cells were washed by 2% FBS in PBS and subjected to flow cytometry using standard protocols known in the art.

B1: S2: control aptamer, scrambled J10 sequence with same nucleotide composition, SEQ ID NO. 5 (nucleic acid)
DNA: CAATAGAGTCGTACAGGTCGTGAGAAGGCGTTGGTCTATCGGGGTCGTGGACTGTCCAAGGGCATGACCGGTCTGACGGTGGCCAGAGACGCAGGAGGGG
modifications: DNA, backbone and methylation of C not given here; Cy5 label
[1]
  binding affinity to THP-1: no binding affinity
[2]
  binding affinity to HUVEC: no binding affinity
[3]
  binding affinity to U937: no binding affinity
[4]
  detection of Cy5-labeled aptamer in SVEC: no detection
[5]
  percentage of Cy5-labeled monocytes (RAW264.7): but not S2, was capable of binding selectively to monocytes in vitro
[6]
  percentage of Cy5-labeled monocytes (J774A.1): but not S2, was capable of binding selectively to monocytes in vitro

B2: J10: monocyte-specific DNA aptamer from cell-SELEX, SEQ ID NO. 4 (Table 2); Cy5-labeled for flow cytometry (nucleic acid)
DNA: CAATAGAGTCGTACAGGTCGACGCTCGGATGCCACTACAGGGATGGGAGGGAGGGGGCTCGTGGCGGCTAGGGGGTATAACTCATGGACGTGCTGGTGAC
modifications: DNA, backbone and methylation of C not given here; Cy5 label
[7]
  in vivo targeting of aptamer to the injured site (PCR): confirmed in vivo targeting ability
[1]
  binding affinity to THP-1: high binding affinity
[2]
  binding affinity to HUVEC: but not human endothelial cell line HUVEC
[3]
  binding affinity to U937: high binding affinity
[4]
  detection of Cy5-labeled aptamer in SVEC: no detection
[5]
  percentage of Cy5-labeled monocytes (RAW264.7): significantly higher than the percentage of Cy5-labeled S2 monocytes
[8]
  affinity to circulating myeloid cells (CD45+ CD11b+ cells): high affinity
[6]
  percentage of Cy5-labeled monocytes (J774A.1): significantly higher than the percentage of Cy5-labeled S2 monocytes
